Patent US20140274782A1, “AFFINITY REAGENTS AND METHODS FOR DETECTION, PURIFICATION, AND PROTEOMIC ANALYSIS OF METHYLATED PROTEINS” (The Board of Trustees of the Leland Stanford Junior …, priority 2013, published 2014)

T1: G9a and GLP (Homo sapiens, UniProt Q96KQ7+Q9H9B1)
T1 sequence (Q96KQ7 2-1210 limits assumed): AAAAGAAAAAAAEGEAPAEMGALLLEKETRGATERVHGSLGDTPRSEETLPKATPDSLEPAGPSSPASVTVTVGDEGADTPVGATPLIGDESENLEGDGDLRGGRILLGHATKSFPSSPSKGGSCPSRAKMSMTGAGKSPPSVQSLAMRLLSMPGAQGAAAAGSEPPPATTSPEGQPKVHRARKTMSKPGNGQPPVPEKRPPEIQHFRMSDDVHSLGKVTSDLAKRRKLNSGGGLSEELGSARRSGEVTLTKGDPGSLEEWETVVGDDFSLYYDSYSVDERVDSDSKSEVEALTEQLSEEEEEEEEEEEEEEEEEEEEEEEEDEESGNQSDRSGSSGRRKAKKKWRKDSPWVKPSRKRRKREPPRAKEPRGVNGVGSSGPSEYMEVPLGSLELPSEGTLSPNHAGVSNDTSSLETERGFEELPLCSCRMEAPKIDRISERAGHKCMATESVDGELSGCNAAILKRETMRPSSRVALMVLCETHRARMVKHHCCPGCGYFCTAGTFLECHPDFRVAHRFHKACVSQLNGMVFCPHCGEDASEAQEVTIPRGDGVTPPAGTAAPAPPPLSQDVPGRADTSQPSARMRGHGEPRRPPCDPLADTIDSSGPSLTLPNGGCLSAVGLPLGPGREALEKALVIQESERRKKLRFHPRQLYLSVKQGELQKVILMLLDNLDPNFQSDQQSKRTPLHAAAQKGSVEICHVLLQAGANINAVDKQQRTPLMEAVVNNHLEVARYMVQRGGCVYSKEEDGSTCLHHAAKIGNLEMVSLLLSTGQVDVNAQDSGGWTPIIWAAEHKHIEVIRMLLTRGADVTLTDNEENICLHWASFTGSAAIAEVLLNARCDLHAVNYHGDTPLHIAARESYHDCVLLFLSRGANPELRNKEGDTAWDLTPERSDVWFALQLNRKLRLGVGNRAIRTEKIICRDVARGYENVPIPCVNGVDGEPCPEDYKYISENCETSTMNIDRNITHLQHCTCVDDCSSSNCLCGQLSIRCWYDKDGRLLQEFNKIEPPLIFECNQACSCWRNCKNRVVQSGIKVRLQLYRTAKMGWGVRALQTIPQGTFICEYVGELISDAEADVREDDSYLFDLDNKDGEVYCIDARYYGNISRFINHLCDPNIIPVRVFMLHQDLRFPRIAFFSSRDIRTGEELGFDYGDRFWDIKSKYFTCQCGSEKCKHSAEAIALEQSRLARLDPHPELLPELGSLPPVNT
T1 sequence (Q9H9B1 2-1298 limits assumed): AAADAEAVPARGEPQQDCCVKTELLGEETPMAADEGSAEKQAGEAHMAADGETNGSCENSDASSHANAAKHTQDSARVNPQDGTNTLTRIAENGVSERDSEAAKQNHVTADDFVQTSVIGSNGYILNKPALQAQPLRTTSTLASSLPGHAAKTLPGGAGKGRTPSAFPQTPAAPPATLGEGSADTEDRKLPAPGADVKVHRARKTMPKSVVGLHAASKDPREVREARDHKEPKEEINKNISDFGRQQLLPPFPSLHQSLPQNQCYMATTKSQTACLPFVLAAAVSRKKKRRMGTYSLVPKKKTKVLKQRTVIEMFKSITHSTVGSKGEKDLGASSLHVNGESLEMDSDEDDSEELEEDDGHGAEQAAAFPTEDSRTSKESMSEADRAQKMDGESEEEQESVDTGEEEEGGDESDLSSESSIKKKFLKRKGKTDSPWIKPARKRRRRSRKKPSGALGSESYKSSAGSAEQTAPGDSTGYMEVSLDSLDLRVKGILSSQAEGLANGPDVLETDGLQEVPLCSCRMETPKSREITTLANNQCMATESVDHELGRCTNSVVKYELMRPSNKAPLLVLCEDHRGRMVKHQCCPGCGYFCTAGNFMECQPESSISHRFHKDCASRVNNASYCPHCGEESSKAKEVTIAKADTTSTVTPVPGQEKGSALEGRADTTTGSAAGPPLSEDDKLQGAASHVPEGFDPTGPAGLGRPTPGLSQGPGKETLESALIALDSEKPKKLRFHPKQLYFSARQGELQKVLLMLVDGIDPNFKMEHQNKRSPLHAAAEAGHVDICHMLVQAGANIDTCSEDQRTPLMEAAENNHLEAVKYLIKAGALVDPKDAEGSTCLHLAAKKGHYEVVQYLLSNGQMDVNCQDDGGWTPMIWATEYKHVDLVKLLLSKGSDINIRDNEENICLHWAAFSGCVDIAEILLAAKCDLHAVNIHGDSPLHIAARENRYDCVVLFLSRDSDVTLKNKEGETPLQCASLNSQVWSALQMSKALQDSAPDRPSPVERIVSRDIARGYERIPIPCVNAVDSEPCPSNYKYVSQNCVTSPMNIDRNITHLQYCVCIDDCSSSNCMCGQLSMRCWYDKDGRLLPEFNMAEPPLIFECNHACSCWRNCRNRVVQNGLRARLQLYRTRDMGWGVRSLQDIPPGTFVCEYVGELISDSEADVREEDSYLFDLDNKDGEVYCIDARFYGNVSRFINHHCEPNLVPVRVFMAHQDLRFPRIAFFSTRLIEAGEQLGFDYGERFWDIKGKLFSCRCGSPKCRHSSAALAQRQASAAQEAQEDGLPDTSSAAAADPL


How the values were obtained:
[1] = test system: 3×MBT domain of L3MBTL1; test: Triple SILAC pull-down, 3xMBT/3xMBTD355N ratio (cytoplasmic, nuclear and chromatin fractions of 293T cells); assay type: binding, human; details: SILAC ratio, pull-down 3xMBT vs 3xMBTD355N; for 3xMBT/D355N UNC Heavy: experiment with UNC0638 in heavy SILAC media; for 3xMBT/D355N UNC Light: experiment with UNC0638 in light SILAC media;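 on all read-outs here: proteins quantified with MaxQuant, requiring at least two unique peptides and quantification in both label directions, normalized to the mean of proteins from a digested loading control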
[2] = biological target: T1, G9a and GLP; test: Triple SILAC pull-down after UNC0638 treatment of 293T cells, DMSO/UNC0638 ratio of protein captured by 3×MBT; assay type: cell-based; design: endogenous in cells; host or cells: HEK 293T; details: for Relative to UNC0638 UNC Heavy / Relative to UNC0638 UNC Light: SILAC ratio DMSO/UNC0638 of protein pulled down with 3xMBT; for Relative to UNC0638 UNC Heavy: UNC0638 in heavy SILAC media; for Relative to UNC0638 UNC Light: UNC0638 in light SILAC media; for Relative to UNC0638 Average: average of UNC Light and UNC Heavy experiments;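 on all read-outs here: mass spectrometry (Q-Exactive) SILAC quantitation, DMSO/UNC0638 ratio computed after subtracting 3×MBTD355N mutant pull-down background, only proteins with at least twofold 3×MBT over mutant signal considered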

Relative to UNC0638 UNC Heavy [2] [log base 2] | Relative to UNC0638 UNC Light [2] [log base 2] | Relative to UNC0638 Average [2] [log base 2] | Candidate G9a/GLP target ([2]; reduced association with 3xMBT after UNC0638 treatment) | Molecule | 3xMBT/D355N UNC Heavy [1] [log base 2] | 3xMBT/D355N UNC Light [1] [log base 2]
0.30 | 0.06 | 0.18 | – | CPSF3 (protein, UniProt Q9UKF6 2-684, looked up) Cleavage and polyadenylation …: SAIPAEESDQLLIRPLGAGQEVGRSCIILEFKGRKIMLDCGIHPGLEGMDALPYIDLIDPAEIDLLLISHFHLDHCGALPWFLQKTSFKGRTFMTHATKAIYRWLLSDYVKVSNISADDMLYTETDLEESMDKIETINFHEVKEVAGIKFWCYHAGHVLGAAMFMIEIAGVKLLYTGDFSRQEDRHLMAAEIPNIKPDILIIESTYGTHIHEKREEREARFCNTVHDIVNRGGRGLIPVFALGRAQELLLILDEYWQNHPELHDIPIYYASSLAKKCMAVYQTYVNAMNDKIRKQININNPFVFKHISNLKSMDHFDDIGPSVVMASPGMMQSGLSRELFESWCTDKRNGVIIAGYCVEGTLAKHIMSEPEEITTMSGQKLPLKMSVDYISFSAHTDYQQTSEFIRALKPPHVILVHGEQNEMARLKAALIREYEDNDEVHIEVHNPRNTEAVTLNFRGEKLAKVMGFLADKKPEQGQRVSGILVKRNFNYHILSPCDLSNYTDLAMSTVKQTQAIPYTGPFNLLCYQLQKLTGDVEELEIQEKPALKVFKNITVIQEPGMVVLEWLANPSNDMYADTVTTVILEVQSNPKIRKGAVQKVSKKLEMHVYSKRLEIMLQDIFGEDCVSVKDDSILSVTVDGKTANLNLETRTVECEEGSEDDESLREMVELAAQRLYEALTPVH | 3.39 | 0.51
0.15 | 3.16 | 1.65 | ✓ | CPSF2 (protein, UniProt Q9P2I0 1-782, looked up) Cleavage and polyadenylation …: MTSIIKLTTLSGVQEESALCYLLQVDEFRFLLDCGWDEHFSMDIIDSLRKHVHQIDAVLLSHPDPLHLGALPYAVGKLGLNCAIYATIPVYKMGQMFMYDLYQSRHNTEDFTLFTLDDVDAAFDKIQQLKFSQIVNLKGKGHGLSITPLPAGHMIGGTIWKIVKDGEEEIVYAVDFNHKREIHLNGCSLEMLSRPSLLITDSFNATYVQPRRKQRDEQLLTNVLETLRGDGNVLIAVDTAGRVLELAQLLDQIWRTKDAGLGVYSLALLNNVSYNVVEFSKSQVEWMSDKLMRCFEDKRNNPFQFRHLSLCHGLSDLARVPSPKVVLASQPDLECGFSRDLFIQWCQDPKNSIILTYRTTPGTLARFLIDNPSEKITEIELRKRVKLEGKELEEYLEKEKLKKEAAKKLEQSKEADIDSSDESDIEEDIDQPSAHKTKHDLMMKGEGSRKGSFFKQAKKSYPMFPAPEERIKWDEYGEIIKPEDFLVPELQATEEEKSKLESGLTNGDEPMDQDLSDVPTKCISTTESIEIKARVTYIDYEGRSDGDSIKKIINQMKPRQLIIVHGPPEASQDLAECCRAFGGKDIKVYMPKLHETVDATSETHIYQVRLKDSLVSSLQFCKAKDAELAWIDGVLDMRVSKVDTGVILEEGELKDDGEDSEMQVEAPSDSSVIAQQKAMKSLFGDDEKETGEESEIIPTLEPLPPHEVPGHQSVFMNEPRLSDFKQVLLREGIQAEFVGGVLVCNNQVAVRRTETGRIGLEGCLCQDFYRIRDLLYEQYAIV | 1.85 | 4.20
0.27 | 0.10 | 0.19 | – | SRP72 (protein, UniProt O76094 2-671, looked up) Signal recognition particle …: ASGGSGGVSVPALWSEVNRYGQNGDFTRALKTVNKILQINKDDVTALHCKVVCLIQNGSFKEALNVINTHTKVLANNSLSFEKAYCEYRLNRIENALKTIESANQQTDKLKELYGQVLYRLERYDECLAVYRDLVRNSQDDYDEERKTNLSAVVAAQSNWEKVVPENLGLQEGTHELCYNTACALIGQGQLNQAMKILQKAEDLCRRSLSEDTDGTEEDPQAELAIIHGQMAYILQLQGRTEEALQLYNQIIKLKPTDVGLLAVIANNIITINKDQNVFDSKKKVKLTNAEGVEFKLSKKQLQAIEFNKALLAMYTNQAEQCRKISASLQSQSPEHLLPVLIQAAQLCREKQHTKAIELLQEFSDQHPENAAEIKLTMAQLKISQGNISKACLILRSIEELKHKPGMVSALVTMYSHEEDIDSAIEVFTQAIQWYQNHQPKSPAHLSLIREAANFKLKYGRKKEAISDLQQLWKQNPKDIHTLAQLISAYSLVDPEKAKALSKHLPSSDSMSLKVDVEALENSAGATYIRKKGGKVTGDSQPKEQGQGDLKKKKKKKKGKLPKNYDPKVTPDPERWLPMRERSYYRGRKKGKKKDQIGKGTQGATAGASSELDASKTVSSPPTSPRPGSAATVSASTSNIIPPRHQKPAGAPATKKKQQQKKKKGGKGGW | 1.68 | 2.90
0.12 | 0.24 | 0.18 | – | HNRNPR (protein, UniProt O43390 2-633, looked up) Heterogeneous nuclear …: ANQVNGNAVQLKEEEEPMDTSSVTHTEHYKTLIEAGLPQKVAERLDEIFQTGLVAYVDLDERAIDALREFNEEGALSVLQQFKESDLSHVQNKSAFLCGVMKTYRQREKQGSKVQESTKGPDEAKIKALLERTGYTLDVTTGQRKYGGPPPDSVYSGVQPGIGTEVFVGKIPRDLYEDELVPLFEKAGPIWDLRLMMDPLSGQNRGYAFITFCGKEAAQEAVKLCDSYEIRPGKHLGVCISVANNRLFVGSIPKNKTKENILEEFSKVTEGLVDVILYHQPDDKKKNRGFCFLEYEDHKSAAQARRRLMSGKVKVWGNVVTVEWADPVEEPDPEVMAKVKVLFVRNLATTVTEEILEKSFSEFGKLERVKKLKDYAFVHFEDRGAAVKAMDEMNGKEIEGEEIEIVLAKPPDKKRKERQAARQASRSTAYEDYYYHPPPRMPPPIRGRGRGGGRGGYGYPPDYYGYEDYYDDYYGYDYHDYRGGYEDPYYGYDDGYAVRGRGGGRGGRGAPPPPRGRGAPPPRGRAGYSQRGAPLGPPRGSRGGRGGPAQQQRGRGSRGSRGNRGGNVGGKRKADGYNQPDSKRRQTNNQQNWGSQPIAQQPLQQGGDYSGNYGYNNDNQEFYQDTYGQQWK | 3.20 | 3.60
